The values that follow come from paper PMC10318062 (Nature Communications, 2023).

The labels stand for the following.
B1: AZD8895 (sdFab) (Fab, V domains shown)
VH: EVQLVQSGPEVKKPGTSVKVSCKASGFTFMSSAVQWVRQARGQRLEWIGWIVIGSGNTNYAQKFQERVTITRDMSTSTAYMELSSLRSEDTAVYYCAAPYCSSISCNDGFDIWGQGTMVTVSS
VL: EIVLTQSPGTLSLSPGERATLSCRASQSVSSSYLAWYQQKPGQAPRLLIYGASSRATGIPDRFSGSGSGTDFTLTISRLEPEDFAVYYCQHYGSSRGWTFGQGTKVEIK
B2: REGN10987 (sdFab) (Fab, V domains shown)
VH: QVQLVESGGGVVQPGRSLRLSCAASGFTFSNYAMYWVRQAPGKGLEWVAVISYDGSNKYYADSVKGRFTISRDNSKNTLYLQMNSLRTEDTAVYYCASGSDYGDYLLVYWGQGTLVTVSS
VL: QSALTQPASVSGSPGQSITISCTGTSSDVGGYNYVSWYQQHPGKAPKLMIYDVSKRPSGVSNRFSGSKSGNTASLTISGLQSEDEADYYCNSLTSISTWVFGGGTKLTVL
B3: REGN10933 (sdFab) (Fab, V domains shown)
VH: QVQLVESGGGLVKPGGSLRLSCAASGFTFSDYYMSWIRQAPGKGLEWVSYITYSGSTIYYADSVKGRFTISRDNAKSSLYLQMNSLRAEDTAVYYCARDRGTTMVPFDYWGQGTLVTVSS
VL: DIQMTQSPSSLSASVGDRVTITCQASQDITNYLNWYQQKPGKAPKLLIYAASNLETGVPSRFSGSGSGTDFTFTISGLQPEDIATYYCQQYDNLPLTFGGGTKVEIK
B4: CB6 (sdFab) (Fab, V domains shown)
VH: EVQLVESGGGLVQPGGSLRLSCAASGFTVSSNYMSWVRQAPGKGLEWVSVIYSGGSTFYADSVKGRFTISRDNSMNTLFLQMNSLRAEDTAVYYCARVLPMYGDYLDYWGQGTLVTVSS
VL: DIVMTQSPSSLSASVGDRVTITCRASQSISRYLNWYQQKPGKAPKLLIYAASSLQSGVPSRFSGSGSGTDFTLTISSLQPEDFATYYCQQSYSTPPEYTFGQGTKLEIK
B5: LY-CoV555 (sdFab) (Fab, V domains shown)
VH: QVQLVQSGAEVKKPGSSVKVSCKASGGTFSNYAISWVRQAPGQGLEWMGRIIPILGIANYAQKFQGRVTITADKSTSTAYMELSSLRSEDTAVYYCARGYYEARHYYYYYAMDVWGQGTAVTVSS
VL: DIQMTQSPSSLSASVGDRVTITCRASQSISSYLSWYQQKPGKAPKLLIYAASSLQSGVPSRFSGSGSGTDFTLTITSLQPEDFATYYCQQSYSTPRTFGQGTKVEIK
B6: LY-CoV1404 (sdFab) (Fab, V domains shown)
VH: QITLKESGPTLVKPTQTLTLTCTFSGFSLSISGVGVGWLRQPPGKALEWLALIYWDDDKRYSPSLKSRLTISKDTSKNQVVLKMTNIDPVDTATYYCAHHSISTIFDHWGQGTLVTVSS
VL: QSALTQPASVSGSPGQSITISCTATSSDVGDYNYVSWYQQHPGKAPKLMIFEVSDRPSGISNRFSGSKSGNTASLTISGLQAEDEADYYCSSYTTSSAVFGGGTKLTVL

The target of this assay is SARS-CoV-2 hexaproline stabilized pre-fusion spike glycoprotein (S6P) (SARS-CoV-2, ancestral (Wuhan-Hu-1 …, UniProt P0DTC2, stabilised)). As to the kind of experiment: AlphaScreen or HTRF. As to conditions: one partner purified.
Turning to B1, the binding result is “binds”.

Regarding B2, the binding result is recorded as “binds”.

With B3, the binding result is “binds”.

With B4, the binding result was “binds”.

For the molecule B5, the binding result is reported as “binds”.

Regarding B6, the binding result is given as “binds”.
